From patent US7053194 (FOX CHASE CANCER CENTER, dated 2006)
Values belong to the binder of their own block, whether it stands above or below them.

Biological target: T1, GST p53 (amino acids 1-393), GST fusion protein of full-length p53 (human, UniProt P04637 1-393)
T1 construct: not shown: glutathione S-transferase (GST) fusion partner
Test: in vitro interaction of truncated mSin3a with GST p53
Procedure: GST-fusion proteins were prepared from E. coli cells as described (Murphy et al., Genes & Devel. 10:2971–2980, 1996). One microgram of GST or fusion protein was bound to glutathione sepharose beads and incubated with 10 uL of ^35S methionine labeled, in vitro translated proteins generated in a coupled transcription/translation system (TNT, Promega). Binding occurred in 300 uL of binding buffer (20 mM Hepes pH 7.9/150 mM KC1/1 mM EDTA/4 mM MgC12/1 mM DTT/0.02% NP-40/10% glycerol) supplemented with protease inhibitors. Proteins were bound for 30 minutes at 4 degrees, and bound complexes were washed three times in wash buffer with constant vortexing (20 mM Hepes pH 7.9/150 mM KC1/1 mM EDTA/4 mM MgCl2/1 mM DTT/0.1% NP-40/10% glycerol). Bound proteins were eluted in 1× Laemmli sample buffer and separated on 7.5% or 10% SDS-PAGE. […] Bound complexes were washed twice in NP-40 buffer, once in RIPA buffer, and resolved on SDS-PAGE.

T1 sequence (P04637 whole entry, the tested form may be a part): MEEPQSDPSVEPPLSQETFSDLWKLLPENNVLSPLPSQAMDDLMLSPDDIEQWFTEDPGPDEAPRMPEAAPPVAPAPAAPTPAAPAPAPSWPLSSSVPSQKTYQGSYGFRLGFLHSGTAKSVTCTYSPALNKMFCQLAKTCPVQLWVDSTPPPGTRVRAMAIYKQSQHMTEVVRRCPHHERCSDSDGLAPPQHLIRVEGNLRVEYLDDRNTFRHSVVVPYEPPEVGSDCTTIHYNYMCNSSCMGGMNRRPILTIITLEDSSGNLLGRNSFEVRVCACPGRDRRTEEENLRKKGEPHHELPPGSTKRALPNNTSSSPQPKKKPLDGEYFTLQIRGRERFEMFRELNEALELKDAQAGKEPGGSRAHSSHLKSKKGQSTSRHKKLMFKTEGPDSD

binding result: no binding
B1: truncated mSin3a, amino acids 297-386 (PAH 2) (other, UniProt Q60520 297-386, looked up)
chain: QNNQPVEFNHAINYVNKIKNRFQGQPDIYKAFLEILHTYQKEQRNAKEAGGNYTPALTEQEVYAQVARLFKNQEDLLSEFGQFLPDANSS
notes: range 297-386

binding result: binds
B2: truncated mSin3a, amino acids 297-529 (PAH2-3) (other, UniProt Q60520 297-529, looked up)
chain: QNNQPVEFNHAINYVNKIKNRFQGQPDIYKAFLEILHTYQKEQRNAKEAGGNYTPALTEQEVYAQVARLFKNQEDLLSEFGQFLPDANSSVLLSKTTAEKVDSVRNDHGGTVKKPQLNNKPQRPSQNGCQIRRHSGTGATPPVKKKPKLMSLKESSMADASKHGVGTESLFFDKVRKALRSAEAYENFLRCLVIFNQEVISRAELVQLVSPFLGKFPELFNWFKNFLGYKESV
notes: range 297-529

binding result: no binding
B3: truncated mSin3a, amino acids 112-192 (paired amphipathic helix 1) (other, UniProt Q60520 112-192, looked up)
chain: VQGQQQFQRLKVEDALSYLDQVKLQFGSQPQVYNDFLDIMKEFKSQSIDTPGVISRVSQLFKGHPDLIMGFNTFLPPGYKI
notes: range 112-192; Printed PAM is read as PAH1; also called PAM (so in the source); PAH1
